Laboratory results taken from PMC4056191.

Target: H3.3 G90M (pCDH, transfected) (human) (UniProt P84243)
Experiment: co-IP

Sequence of DAXX found with transfected H3 in 293T cells (Q9UER7 whole entry): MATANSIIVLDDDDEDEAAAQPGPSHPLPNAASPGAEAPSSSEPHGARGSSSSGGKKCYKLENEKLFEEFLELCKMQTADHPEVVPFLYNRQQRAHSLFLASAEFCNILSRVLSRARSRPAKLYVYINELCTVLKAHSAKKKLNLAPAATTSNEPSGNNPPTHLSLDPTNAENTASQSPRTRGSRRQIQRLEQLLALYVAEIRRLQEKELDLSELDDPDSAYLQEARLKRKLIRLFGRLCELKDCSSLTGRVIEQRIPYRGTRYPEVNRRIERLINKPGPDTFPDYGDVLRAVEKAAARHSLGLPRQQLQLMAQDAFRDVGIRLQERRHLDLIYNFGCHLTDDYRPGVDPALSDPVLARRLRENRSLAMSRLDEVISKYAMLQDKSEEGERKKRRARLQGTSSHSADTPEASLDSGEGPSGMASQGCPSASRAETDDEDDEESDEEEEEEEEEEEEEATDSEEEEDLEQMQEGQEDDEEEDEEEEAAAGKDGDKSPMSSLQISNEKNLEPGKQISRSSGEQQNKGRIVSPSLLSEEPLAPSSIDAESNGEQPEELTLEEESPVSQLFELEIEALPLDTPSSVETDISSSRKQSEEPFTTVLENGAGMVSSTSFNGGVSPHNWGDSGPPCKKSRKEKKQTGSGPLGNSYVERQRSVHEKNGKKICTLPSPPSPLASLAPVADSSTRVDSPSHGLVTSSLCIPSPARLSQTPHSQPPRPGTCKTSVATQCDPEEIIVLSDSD

Q: How did the reduction of DAXX binding against wild-type H3.3 turn out when “DAXX found with transfected H3 in 293T cells (from UniProt Q9UER7 1-740) (natural protein)” was run?
A: Its reduction of DAXX binding against wild-type H3.3 is 50%.
